Experimental findings from patent US9383360B2, “Compositions and methods relating to lyme disease” (The United States of America, as represented by the …, priority 2012, dated 2016) are described below.

Experiment [1] deals with chondrocyte aggregate cultures. Briefly: Chondrocyte cytokine induction assay (Proteome Profiler Cytokine Arrays). The experiment is classed as cell-based, human. The text has this:
Chondrocyte aggregate cultures are used which form an extensive extracellular matrix with components characteristic of articular cartilage including aggrecan and type II collagen as described in Welter, J. et al, BioTechniques, 2007, 42(6):732-737; and Solchaga, L. A. et al., Chondrogenic Differentiation of Bone Marrow-Derived Mesenchymal Stem Cells: Tips and Tricks, 2011, 698:253-278.
To form the chondrocyte aggregate cultures, lx10^6 human mesenchymal stem cells (passage one, Lonza, catalog #PT-2501) were plated in a T150 flask (Corning) and cultured in growth media: mesenchymal stem cell basal media (MSCBM, Lonza, #PT-3238), mesenchymal growth supplements (SingleQuots, Lonza, #PT-4105), and 5 ng/ml recombinant human […] (Shenandoah Biotechnology). When confluent, cells were trypsin-released (0.5% trypsin EDTA, Gibco), expanded to two T150 flasks and fed with growth media every three days. When confluent, cells were harvested, resuspended in fresh growth media containing 5% DMSO and aliquots of 1×10^6 cells were cryopreserved in liquid nitrogen.
Human mesenchymal stem cells were used to promote chondrogenesis and chondrocyte aggregate formation for use in these studies. Two vials of passage three cryopreserved cells were thawed, plated in growth media in two T150 flasks and then expanded to six T150 flasks as above. Cells were harvested (0.5% trypsin EDTA, Gibco), pooled, enumerated and induced to chondrogenic differentiation as follows. Cells were resuspended in defined chondrocyte differentiation media: high glucose DMEM (Gibco), 50 μg/ml ascorbic acid-2-phosphate (Sigma), 39.3 ng/ml dexamethasone (Sigma), […] L-proline (Sigma), ITS+Premix (BD Biosciences), 10 ng/ml transforming growth factor β-3 (Shenandoah Biotechnology) and 30 μg/ml gentamicin sulfate+15 ng/ml amphotericin-B (GA-1000, Lonza, #PT-4504E). High density aggregates were obtained by plating, on average, 3×10^5 cells per well in a conical bottom 96 well plate (Thermo Scientific), pelleting by centrifugation (5 minutes at 600 g), and incubation at 37° C. and 5% CO2. Pellets formed coherent spherical aggregates by day two of culture. After seven days, wide bore tips were used to transfer aggregates to V-bottom 96 well plates (Corning). Aggregates were maintained in differentiation media at 37° C. and 5% CO2 for 3-5 weeks and fed every two days until experimentation.
For chondrocyte cytokine induction assays, 24 hours prior to experimentation, dexamethasone containing media was removed, aggregates were rinsed with DPBS (Gibco) and dexamethasone-free differentiation media was added. For experimentation, aggregates were transferred to 24 well plates (24 aggregates per condition), spent media was removed and fresh warmed dexamethasone-free media containing samples was added. Aggregates were then incubated at 37° C. and 5% CO2 for two days.
Recombinant BbHtrA or BbHtrA^S226A was added to culture medium and incubated with chondrocyte aggregate cultures. BbHtrA and BbHtrA^S226A were purified using an E. coli system and was expected to contain endotoxin which would have a stimulatory effect on the chondrocytes. To control for endotoxin contamination (lipopolysaccharide, LPS), an endotoxin removal kit (Noragen) was used to remove the bulk of LPS from recombinant BbHtrAs. The relative toxicity of the amount remaining in the BbHtrA and BbHtrA^S226A samples was determined by a chromogenic Limulus Amoebocyte Lysate (LAL) method (Lonza, Walkersville, Md.). Prior to addition to aggregates, LPS (44 ng, 200 EU), BbHtrA^WT (20 μg, 27.9 EU LPS) and BbHtrA^S226A ([…], 1.99 EU LPS) were incubated in 1 mg/ml polymyxin B sulfate (Sigma) on ice for 30 min with occasional mixing. Warmed dexamethasone-free medium was then added to each test condition to a final volume of 1 ml. Control aggregates were maintained in untreated medium also containing polymyxin B sulfate. The final concentration for all test conditions was 60 μg/ml polymyxin B sulfate. […]

The next experiment concerns Aggrecan. Nature of the experiment: BbHtrA proteolysis assay, aggrecan substrate. The note with it: SDS-PAGE, silver stain, FIG. 4A. The experiment is classed as biochemical, bovine, human. As to the method:
For proteolysis assays described in Examples herein, purified protein substrates (200-600 nM) and proteases (100-150 nM) were diluted in assay buffer (50 mM HEPES, pH 7.4, 5 mM CaCl2) and incubated overnight at 37° C. Samples were boiled for 4 minutes to inactivate the proteases. Proteoglycans were deglycosylated by overnight incubation at 37° C. with 0.01 U chondroitinase ABC (Seikagaku). Reactions were stopped by the addition of SDS/PAGE sample buffer, boiled for 4 minutes, and electrophoresed on pre-cast Tris-glycine gels (BioRad). Reaction products were visualized by silver staining.
BbHtrA cleaved recombinant human aggrecan (G1-IGD-G2 domains) within the IGD (FIG. 4A). Cleavage of recombinant aggrecan generated three high molecular weight proteolytic fragments which migrated at ˜110 kd, ˜60 kd and ˜50 kd.
BbHtrA also degraded native, fully glycosylated aggrecan (FIG. 4B, lane 5). Again, this degradation required BbHtrA catalytic activity (FIG. 4B, lane 6). The BbHtrA-generated aggrecan fragments appear to be a doublet, unlike those generated by HtrA1.
Purified proteins were incubated with BbHtrA or BbHtrA^S226A as described herein. HtrA (also known as DegP) proteases belong to the family of serine proteases which contain a highly reactive serine residue in their active site. This serine (Ser210 in DegP) is part of the canonical His-Ser-Asp catalytic triad and mutation of the catalytic serine abolishes proteolytic activity (Skorko-Glonek et al., 1995). In BbHtrA, residues His119, Ser226 and Asp149 form the catalytic triad and mutation of serine 226 to alanine abolished proteolytic activity as expected (FIG. 5).
Reaction products were separated by SDS-PAGE and silver stained. Native collagen II and recombinant tenascin C were not degraded by BbHtrA indicating selectivity for proteoglycans, E-cadherin and fibronectin. FIG. 5 is an image of SDS-PAGE analysis showing that BbHtrA degrades aggrecan, neurocan, versican, brevican, biglycan, decorin, E-cadherin, and casein.

The mark [2] stands for this setting: spent medium of chondrocyte aggregates after 48 hours, cytokine array, background subtracted.

B1: BbHtrA^S226A (protein)
chain: MEKKFFSGFLLSFLALSIGFFIGMHYLASNRSNIVFAEEKDNTVRALQDSFREVSKKILPSSVEVHATGVIKQSFPIPFFFFDMPEFDSERKSNWAGSGVIIGRDSQKKSLFYVVTNSHVVDKATELEVVSYDKKKHKAKLIGKDEKKDIALISFESDDATIKVADLGDSDKLEIGDWVMAVGSPFQFSFTVTAGIVSGLQRSANPNLQSRNLFIQTDAAINRGNAGGPLVNIKGEVIGINAWIASNSGGNIGLGFAIPVNNIKSTVDFFLKGKKIESAWLGISFYPLKTRDSEVLKSLGVESNDVSAAIIASLYPGSPAVKSGLRAGDIIMKVNGVSMSVFQDVTSYISDFYAGEKVNVEILRGNVKKNIEIVLAVRPKDKELSSSKMLPGFVVYPLVEDIKAQLNLRNWIKGVVVDYIDKNLASNIKMKSGDVILSVNSKSVSNLREFYDALEVGKNTYKILRGNDSFKITF
modifications: Mutant Borrelia burdorferi HtrA S226A
In the case of B1, in experiment [1] (additional experiments, FIG. 10: BbHtrA^WT, BbHtrA^S226A, LPS, medium alone), the “Cytokines released by chondrocytes in response” value was “IL-8 and CXCL1”. In experiment [1] (setting [2]), the “GROα/CXCL1 pixel density, Mean” value is 0.647; the “I-309/CCL1 pixel density, Mean” value turned out to be 0.163; the “IL-6 pixel density, Mean” value turned out to be 0.309; the “IL-8 pixel density, Mean” value stood at 1.187. Further, in experiment [1] (setting [2]), the “MCP-1/CCL2 pixel density, Mean” value came out at 0.050; the “RANTES/CCL5 pixel density, Mean” value is 0.265; the “sICAM-1/CD54 pixel density, Mean” value turned out to be 0.257. Also, the “Cleavage of recombinant human aggrecan (G1-IGD-G2 domains) within the IGD” value in the experiment on Aggrecan was “failed to generate these fragments”.
